The text below walks through data of the nanobody polyreactivity screen of Harvey et al. (2022).

The data set is described as follows: yeast display, Sf9 membrane polyspecificity reagent, FACS + sequencing; frameworks hold sequencing errors. An outline of the steps:
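A synthetic nanobody library was expressed on Saccharomyces cerevisiae BJ5465 by galactose induction for 36–48 hours. The library was stained for 1 hour at 4 °C with 10% biotinylated, detergent-solubilized Sf9 membrane reagent and enriched with streptavidin microbeads before FACS. Low and high (top ~1%) gates were set on anti-HA fluorescence for expression and streptavidin fluorescence for reagent binding, and each polyreactivity label reflects the gate of origin.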
“QVQLVESGGGLVQAGGSLRLSCAASGNIFYYNAMGWYRQAPGKETELVADITWSGGSTYYADSVKGRFTISRDNAKNTVDLQMNSLKPEDTAVYYCADETFGYHRGRIADDYEYWGQGTQVTVSS”: the “polyreactivity (PSR sort gate)” value is on record as “low polyreactivity”.
Then “QVQLVESGGGLVQAGGSLRLSCAASGNIISNNAMGWYRQAPGKERELVAAIDWSGGRTYYADSVKGRFTISRDNAKNNVYIQMNSLKPEDTAVYYCAAEIPFTYRGVFYEYYYWGQGTQVTLSS”, with “high polyreactivity”; and “QVQLVESGGGLVQAGGSLRLSCAASGNILATNCMGWYRQAPGMERELVAAITFSGDTTYYADSVKGRFTISRDNAKNTVYLQMNSLKPEDTAVYYCNAVSFIVNGGYDGDYWGQGTQVTVSS”, with “low polyreactivity”; and “QVQLVESGGGLVQAGGSLRLSCAASGNILRGYAMGWYRQAPGKERELVAAIDTRGGRTNYADSVKGRFTISRDNAKNTVYLQMNSLKPEDTAVYYCNALGYYSFGHEYWGQGTQVTVSS”, with “low polyreactivity”.
Then “QVQLVESGGGLVQAGGSLRLSCAASGNILSPYTMGWYRQAPGKERELVAGISRSGGTTYYADSVKGRFTLSRDNAKTTVYLQINSLKTEDTAVYYCASGLIYGYSGYDSWGQGTQVTVSS”, with “low polyreactivity”.
The entry for “QVQLVESGGGLVQAGGSLRLSCAASGNILSVYTMGWYRQAPGKERELVATITYSGDRTYADSVKGRFTISRDNAKKTVYLQMNSLKPEDTAVYYCNAVYYREGMDYWGQGTQVTVSS” is “low polyreactivity”.
Consider “QVQLVESGGGLVQAGGSLRLSCAASGNILTTYAMGWYRQAPGKERELVAAIRWSDGSTYYADSVKGRFTISRDNAKNTVYLQMNSLKPEDTAVYYCAADYHYPTWQGGYHYGYWGQGTQVTVSS”, for which the “polyreactivity (PSR sort gate)” value is recorded as “high polyreactivity”.
As to “QVQLVESGGGLVQAGGSLRLSCAASGNILVENAMGWYRQAPGKERELVAVSTSGTSTYADSVKGRFTISRDNAKNSVSFQMNSLKPEDTAVYYCNARRINTLYDSWGQGTLVTVSS”, the “polyreactivity (PSR sort gate)” value is on record as “low polyreactivity”.
For the sequence “QVQLVESGGGLVQAGGSLRLSCAASGNIYDVYAMGWYRQAPGKERELVADIDRGGTTYADSVKGRFTISRDNAKNTVYLQMNSLKPEATAVYYCAADYVQGFGFYYQWHSDYWGQGTQVTVSS”, the “polyreactivity (PSR sort gate)” value is listed as “low polyreactivity”.
Then “QVQLVESGGGLVQAGGSLRLSCAASGNNFGVYAMGWYRQAPGTERELVAAIRYSTVSTYYADSVKGRFTISRDNAKNTVYLQMNSLKPEDTSVYYCAAQRRRYLPGHYYYWGQGTQVTVSS”, with “high polyreactivity”; and “QVQLVESGGGLVQAGGSLRLSCAASGNNFRYNAMVWYRQAPGKERELVAAISSVGTTNYADSVKGRFTISRDNAKNTVYLQMNSLKPEDTAVYYCAAVDYQGGYWYDYWGQGTQVTVSS”, with “low polyreactivity”; and “QVQLVESGGGLVQAGGSLRLSCAASGNNIVINAMGWYRPAPGKERELVAAINWTGGNTYYADSVKGRFTISRDNAKNTVYLQMNSLKPEDSAVYYCAADRRWFVWGLGYWGQGTQVTVSS”, with “low polyreactivity”.
Then “QVQLVESGGGLVQAGGSLRLSCAASGNTCTPNGMGWYRQAPGKEREFVAAITWSGGRTHYADSVKGRFTISRDNAKNTVYLQMNSLKPEDTAVYYCAARRSHFEYGTYSGYDYYWGQGTQVTVSS”, with “high polyreactivity”; and “QVQLVESGGGLVQAGGSLRLSCAASGNTCYQYAMGWYRQAPGKERELVAAISSSGGSTYYADSVKGRFTISRDNAQNTVYLQMNSLKTEDTAVYYCATDKWYGYYYWGQGTQVTVSS”, with “low polyreactivity”; and “QVQLVESGGGLVQAGGSLRLSCAASGNTFAENDMGWYRQAPGKERELVAAITYSGGDTYYADSVKGRFTISRDNAKNTVYLQMNSLKPEDTAVYYCAADNGSKEFDYWGQGTQVTVSS”, with “low polyreactivity”.
Then “QVQLVESGGGLVQAGGSLRLSCAASGNTFAFNAMVWYRQAPGKEREFVAAISYSGVSTYYADSEKGRFTISRDNAKNTVYLQMNSLKPEDTAVYYCAARYGWYKYWYDYWGQGTQGTVSS”, with “high polyreactivity”.
Take “QVQLVESGGGLVQAGGSLRLSCAASGNTFANYAMGWYRQAPGKERELVAAITSNGGSTYYADSVKGRFTISRDNAKNTVYLQMNSLKPEDTAVYYCAAPGAISTRSRYGPGYTYDYWGQVTQVTVSS”: the “polyreactivity (PSR sort gate)” value is reported as “low polyreactivity”.
The entry for “QVQLVESGGGLVQAGGSLRLSCAASGNTFAPNAMGWYRQAPGKERELVAVISWSSGRTYYADSVKGRFTISRDNAKNTVYLQMNSLKPEDTAVYYCAARFGSGFNYWGQGTQVTVSS” is “high polyreactivity”.
On to “QVQLVESGGGLVQAGGSLRLSCAASGNTFDVYAMGWYRQAPGKEREFVARISGRVGSTYYADSVKGRFTISRDNAKYTVYLQMNSLKPEDTAVYYCNRRYQSRNMGYWGQGTQVTVSS”, for which the “polyreactivity (PSR sort gate)” value is “high polyreactivity”.
Consider “QVQLVESGGGLVQAGGSLRLSCAASGNTFEYYVMGWYRQAPGKERELVAAITWSTGSTYYADSVKGRFTISRDNAKNTVYLQMNSLKPEDTAVYYCAALYYFIFGRPTRFDYWGLGTQVTVSS”, for which the “polyreactivity (PSR sort gate)” value was “low polyreactivity”.
On to “QVQLVESGGGLVQAGGSLRLSCAASGNTFEYYVMGWYRQAPGKERELVAAITWSTGSTYYADSVKGRFTISRDNAKNTVYLQMNSLKPEDTAVYYCNAAYVYYYPHYRYAPTAVDYDYWGQGTQVTVSS”, for which the “polyreactivity (PSR sort gate)” value is “low polyreactivity”.
The entry for “QVQLVESGGGLVQAGGSLRLSCAASGNTFFVYAMGWDRQAPGKERELVATITLNGGSTYYADSVKGRFTISRDNAKNTVYLQMNSLKPEDTAVYYCAVEPDVYPSWYYYVDYDYWGQGTQVTVSS” is “low polyreactivity”; for “QVQLVESGGGLVQAGGSLRLSCAASGNTFFVYAMGWYRQAPGKERELVADINWSTGSTYYADFVKGRFTLSRDNAKNTVYLQMNSLKPEDTAVYYCAAEAYYYVIFHGSWYTDDYWGQGTQVTVSS” it is “low polyreactivity”; for “QVQLVESGGGLVQAGGSLRLSCAASGNTFGDYAMGWYRQAPGKERELVAAISRSGGSTSYADSVKGRFTISRDNAKNTVYLQMNSLKPEDTAVYYCAAYWQRFGYDYWGQGTQVTVSS” it is “low polyreactivity”.
In the case of “QVQLVESGGGLVQAGGSLRLSCAASGNTFGIYAMGWYRQAPGKERELVAAISSGTSTNYADSVKGRFTISRDNAKNTVYLQMNSLKPEDTAVYYCNADDQYQDVREDYWGQGTQVTVSS”, the “polyreactivity (PSR sort gate)” value is recorded as “low polyreactivity”.
Regarding “QVQLVESGGGLVQAGGSLRLSCAASGNTFGRYAMGWSRQAPGKERELVASIRGSSVRTFYADSVKGRFTISRDNAKNTVYLQMNSLKPEDTAVYYCAKRGYAYPSSYDSWGQGTQVTVSS”, the “polyreactivity (PSR sort gate)” value is recorded as “high polyreactivity”.
Then “QVQLVESGGGLVQAGGSLRLSCAASGNTFGRYAMGWYRQAPGKERELVAAITKRGGTTYYADSVKGRFTISRDYAKNTVYLQMNSLKPEDTAVYDCAAKRSVLRTADYDYWGQGTQVTVSS”, with “high polyreactivity”; and “QVQLVESGGGLVQAGGSLRLSCAASGNTFGYNAMGWYRQAPGKERELVAAISWRGGRTYYADSVKGRFTISRDHAKNTVYLQMNILKTEDTAVYYCAARRHSTRLRLTYDYWGQGTQVTVSW”, with “high polyreactivity”.
Then “QVQLVESGGGLVQAGGSLRLSCAASGNTFGYNAMGWYRQAPGKERELVASITWSGGSTYYADSVKGRFTISRDNAKNTVYLQMNSLKPEDTAVYYCNADVRYGRDHWGQGTQVTVSS”, with “low polyreactivity”; and “QVQLVESGGGLVQAGGSLRLSCAASGNTFIPNAMGWSRQAPGKETELVAAIRASGGSTYYADSVKGRFTISRDNAKNTVYLQMNSLKPEDTAVYYCNADIWYKTYDYWGQGTQVTVSS”, with “low polyreactivity”; and “QVQLVESGGGLVQAGGSLRLSCAASGNTFIRNVMGWYRQAPGKERELVAGIRTGGSTFYADSVKGRFTISRDNAKNTVYLQMNSLKPEDTAVYYCNADVGDEGNLPYVIRPMDYWGQGTQVTVSS”, with “low polyreactivity”.
The entry for “QVQLVESGGGLVQAGGSLRLSCAASGNTFKRYAMGRYRQAPGKERELVAAITWRGARTYYADSVKGRLTISRDNAKNTFYLQMNSLKPEDTAVYYCAADGYSGSGPYDYWGQGTQVTVSS” is “high polyreactivity”.
For the sequence “QVQLVESGGGLVQAGGSLRLSCAASGNTFLAYVMGWYRQAPGKEREFVAAISRRDGRTYYADSVKGRFTISRDNAKNTVYLQMNSLKPEDTAVYYCNAQRHFWHLYAPSSFDYWGQGTQVTVSS”, the “polyreactivity (PSR sort gate)” value was “low polyreactivity”.
The entry for “QVQLVESGGGLVQAGGSLRLSCAASGNTFNIYAMGWYRQAPGKETEFVAAITVSDTSTYYADSVKGRFTISRDSAKNTVYLQMKSLKPEDTAVYYCNADWWGTYDYYYWGQGTHVTVSS” is “low polyreactivity”.
The entry for “QVQLVESGGGLVQAGGSLRLSCAASGNTFNNNAMGWYRQAPGKERELVAITGDGGSTYYADSVKGRFTISRDNAKNTVYLQMNSLKPEDTAVYYCAADYLYRYQTMGYWGQGTQVTVSS” is “low polyreactivity”; for “QVQLVESGGGLVQAGGSLRLSCAASGNTFPLNAMGWYRQAPGKERELVAAISSSGRTYYADSVKGRFTISRDNAKNTVYLQMNSLKPEDTAVFYCNAKWRERGVRMDYWGQGTQVTVSS” it is “high polyreactivity”; for “QVQLVESGGGLVQAGGSLRLSCAASGNTFPVSYTMGWYRQAPGKEREFVAVITSGGGRTYADSVKGRFTISRDTAKNTVYLQMNSLKPEDTAVYYCAVRPRVSSWKFRSRRYGYWGQGTRVTVSS” it is “high polyreactivity”.
Then “QVQLVESGGGLVQAGGSLRLSCAASGNTFQRYTMGWYRQAPGKERELVAAINSSGGSTFYADSVKGRFTISRDNAKNTVYLQMNSLKPEDTAVYYCAASWHTPTVYDEYYYWGQGTQVTVSS”, with “low polyreactivity”.
In the case of “QVQLVESGGGLVQAGGSLRLSCAASGNTFQYYAMGWYRQAPGKEREFVAAISRRGGSTYYADSVKGRFTISRDNAKNTVYLQMNSLKPEDTAVYYCNKVIVLSQSSYSFHYAYDYWGQGTQVTVSS”, the “polyreactivity (PSR sort gate)” value is given as “high polyreactivity”.
In the case of “QVQLVESGGGLVQAGGSLRLSCAASGNTFRDYAMGWYRQAPGKERELVAAITSSGARTYYADSVKGRFTISRDNAKNTVYLQMISLKPEDTAVYYCAADWSGYYTYDYWGQGTQVTVSS”, the “polyreactivity (PSR sort gate)” value is listed as “low polyreactivity”.
The entry for “QVQLVESGGGLVQAGGSLRLSCAASGNTFRHNTMGWYRQAPGKERELVSTNYADSVKGRFTISRDNAKNTVYLQMNSLKPEDTAVYYCNADGTFGYEYWGHGTQVTVSS” is “low polyreactivity”.
